According to US11066455B2, “Tmem100 peptides and variants thereof and their use in treating or preventing diseases or conditions” (The Johns Hopkins University, priority 2014, dated 2021):
* marks the point of attachment. Myristoyl = CCCCCCCCCCCCCC(=O)*

What was measured:
TRPA1 = tested on: T1, TRPA1; assay: Calcium imaging of HEK293T cells expressing TRPA1 and TRPV1 (MO or CA); assay type: cell-based
T1 construct: percentage of cells responsive to CA; other: shortened CPP 2 μM; CA 10 μM; HEK293 TRPA1+TRPV1; vs scrambled; percentage of cells responsive to MO; other: peptide 200 nM pre-treatment; 500 nM MO; HEK293T TRPA1+TRPV1; percentage of cells that respond to 100 nM MO and 10 μM CA; other: HEK293T TRPA1+TRPV1, Tmem100-3Q-transfected vs lacki; reduction in the percentage of cells responding to MO
Procedure: Calcium imaging assays were performed as previously described (Liu et al., 2009). Cells were loaded with 2 μM fura 2-acetomethoxy ester (Molecular Probes) for 30 min in the dark at room temperature or for 45 minutes at 37° C. for DRG and cell lines, respectively. After washing, cells were imaged at 340 and 380 nm excitation to detect intracellular free calcium under a fluorescent microscope (Nikon Eclipse TE2000-S) and Lambda 10B shutter (Sutter Instrument). The cells were bathed in calcium imaging buffer (pH 7.45, 130 mM NaCl, 3 mM KCl, 2.5 mM CaCl2, 10 mM HEPES, 10 mM glucose, 1.2 mM NaHCO3, with sucrose to increase osmolarity to 290 mOsm). The reagents and buffers were applied through a gravity perfusion system at a rate of […], including mustard oil (Sigma 377430), cinnamaldehyde (Sigma C80687), menthol (Sigma M2780), and capsaicin (Sigma M2028). Cells with high baseline 340/380 values (>1.5) were excluded for analysis. For DRG neurons, IB4 staining was performed in the chamber with the dilution of 1:200 (Molecular Probes 121412) for 160 seconds before washing off at the end of each test. Images were processed and analyzed with NIS-Elements BR 2.30 software (Nikon). A responsive cell was defined as one that with greater than a 20% increase in the 340/380 ratio above the baseline. Intracellular calibration for calcium was performed as previously described (Akopian et al., 2007). The data was analyzed with the experimenter blinded to the genotypes or constructs transfected.
DRG from 3 to 4-week old mice were collected in cold DH10 medium (90% DMEM/F-12, 10% FBS, 100 U/ml penicillin, and 100 μg/ml Streptomycin, Gibco) and treated with enzyme solution in HBSS containing collagenase (1.65 mg/mL, Worthington CLS I) and dispase (3.55 mg/mL, GIBCO 17105-041) at 37° C. for 30 minutes. After trituration and centrifugation, cells were resuspended in DH10, plated on glass coverslips coated with poly-D-lysine (0.5 mg/ml, Stoughton, Mass.) and laminin (10 μg/ml, Invitrogen), and cultured overnight in an incubator at 37° C. The neurons were tested within 24 hours. HEK293T, COS-7, and CHO cells were cultured in a medium consisting of 90% DMEM, 10% FBS, 100 U/mL penicillin, and 100 μg/ml Streptomycin. GlutaMAX (Gibco 35050-061) was also added for CHO cells. For calcium imaging, the cells were plated on glass coverslips coated with poly-D-lysine (0.5 mg/ml, Stoughton, Mass.). In the HEK cell studies the denominator is the cells expressing both TRPA1, TRPV1, and the designated constructs (i.e. Tmem100 or Tmem100-3Q mutant). mCherry:TRPV1:Tmem100 was transfected in 1:8:8 ratio into TRPA1 stable cell line (obtained from N. Tigue from GlaxoSmithKline) and used mCherry as the marker for the cells expressing the constructs 18 hours after transfection with Lipofectamine 2000. The transfection efficiency for Tmem100+TRPV1+TRPA1 triple-positive cells is 27±3%. This efficiency was determined by mCherry(+) divided by total number of cells in the bright fields.
The sequence from the last 28 amino acids of the C-terminus of the Tmem100-3Q mutant protein was synthesized and myristoylated at its N-terminus (myr-[…]-COOH) (SEQ ID NO: 8) by Twentyfirst Century Biochemicals. […] For the calcium imaging assay, the peptides were added to the calcium imaging buffer with a final concentration of 200 nM and incubated for at least […] at room temperature. For the mice behavioral assays, the peptides (5 μL, 2 mM) were injected subcutaneously in the hindpaw at least 30 minutes before testing. For the rat behavior assays, human T100-3Q (h-T100), a palmitoylated cell permeable peptide mutated based on the C terminus of human sequence in Tmem100, was applied. The sequence is Palmitoyl-[…]-COOH (SEQ ID NO: 7).

TRPA1-V1 complex = assay: FRET with TIRF microscopy of TRPV1-CFP and TRPA1-YFP in COS-7 cells; assay type: cell-based; details: compared to cells expressing only TRPA1-V1
Description: Expression vectors of pEYFP-TRPA1 (YFP on C-terminal part), pECFP-TRPV1 (CFP on C-terminal part), and pEYFP-N1 were transfected into COS-7 cells with FuGENE HD (Promega E2311), as previously described (Staruschenko et al., 2010). COS-7 cells were chosen since they have flat morphology and thus suitable for TIRF-FRET analysis. Moreover, previously it has been shown that CHO and COS cells express TRPA1 and TRPV1 to the same level (Staruschenko et al., 2010). Data from fixed cells were collected in separate facilities at University of Texas Health Science Center, San Antonio, and the Johns Hopkins University, respectively. […] Briefly, two days after transfection, the cells were fixed for 15 min with 4% paraformaldehyde in PBS and then imaged at the room temperature using total internal reflection fluorescence (TIRF) (also called evanescent-field) microscopy on an inverted Nikon Eclipse TE200U microscope equipped with a plain Apo TIRF 60× oil-immersion, high-resolution (1.45 NA) objective. […] Fluorescence images were collected and processed with a 16-bit, cooled charge-coupled device camera (Cascade 512F; Roper Scientific Inc.) interfaced to a PC running Metamorph software.
Each cell was photobleached by argon-ion laser (514 nm) at full power for 2 min. […] All images were analyzed in ImageJ. […]

myr-QRVLEQVLQNWSRRANVKQAQKFQVKCT-COOH (Myristoyl-QRVLEQVLQNWSRRANVKQAQKFQVKCT-OH; SMILES CCCCCCCCCCCCCC(=O)N[C@@H](CCC(N)=O)C(=O)N[C@@H](CCCNC(=N)N)C(=O)N[C@H](C(=O)N[C@@H](CC(C)C)C(=O)N[C@@H](CCC(=O)O)C(=O)N[C@@H](CCC(N)=O)C(=O)N[C@H](C(=O)N[C@@H](CC(C)C)C(=O)N[C@@H](CCC(N)=O)C(=O)N[C@@H](CC(N)=O)C(=O)N[C@@H](Cc1c[nH]c2ccccc12)C(=O)N[C@@H](CO)C(=O)N[C@@H](CCCNC(=N)N)C(=O)N[C@@H](CCCNC(=N)N)C(=O)N[C@@H](C)C(=O)N[C@@H](CC(N)=O)C(=O)N[C@H](C(=O)N[C@@H](CCCCN)C(=O)N[C@@H](CCC(N)=O)C(=O)N[C@@H](C)C(=O)N[C@@H](CCC(N)=O)C(=O)N[C@@H](CCCCN)C(=O)N[C@@H](Cc1ccccc1)C(=O)N[C@@H](CCC(N)=O)C(=O)N[C@H](C(=O)N[C@@H](CCCCN)C(=O)N[C@@H](CS)C(=O)N[C@H](C(=O)O)[C@@H](C)O)C(C)C)C(C)C)C(C)C)C(C)C) [scrambled]
percentage of cells responsive to MO (TRPA1; peptide 200 nM pre-treatment, 500 nM MO, HEK293T TRPA1+TRPV1): 18±2.8%

B1: Tmem100-3Q mutant (full-length, mouse) (protein)
chain: MTEESTKENLGAPKSPTPVTMEKNPKREVVVTTGPLVSEVQLMAATGGAELSCYRCIIPFAVVVFITGIVVTAVAYSFNSHGSIISIFGLVLLSSGLFLLASSALCWKVRQRNKKVQQQESQTALVVNQRCLFA
percentage of cells that respond to 100 nM MO and 10 μM CA (TRPA1; HEK293T TRPA1+TRPV1, Tmem100-3Q-transfected vs lacking Tmem100-3Q): significantly lower
enhancement of the TRPA1-TRPV1 interaction (FRET efficiency) (TRPA1-V1 complex): 43%

B2: Tmem100: 134-amino acid two-transmembrane protein, regulator of TRPA1 (SEQ ID NO: 1/2), expressed in cells (protein, listed as Homo sapiens, listed as Mus musculus)
chain 1: MTEEPIKEILGAPKAHMAATMEKSPKSEVVITTVPLVSEIQLMAATGGTELSCYRCIIPFAVVVFIAGIVVTAVAYSFNSHGSIISIFGLVVLSSGLFLLASSALCWKVRQRSKKAKRRESQTALVANQRSLFA
chain 2: MTEESTKENLGAPKSPTPVTMEKNPKREVVVTTGPLVSEVQLMAATGGAELSCYRCIIPFAVVVFITGIVVTAVAYSFNSHGSIISIFGLVLLSSGLFLLASSALCWKVRQRNKKVKRRESQTALVVNQRCLFA
decrease of TRPA1-V1 FRET efficiency (TRPA1-V1 complex): 34%
